Laboratory results published in article PMC6063439.

Test: immunoblot of HEK293 lysate and culture medium
Conditions: glycan lost; control: wild-type FMOD

B1: fibromodulin (FMOD): FMODΔGAG (protein)
parent chain: MQWTSLLLLAGLFSLSQAQYEDDPHWWFHYLRSQQSTYYDPYDPYPYETYEPYPYGVDEGPAYTYGSPSPPDPRDCPQECDCPPNFPTAMYCDNRNLKYLPFVPSRMKYVYFQNNQITSIQEGVFDNATGLLWIALHGNQITSDKVGRKVFSKLRHLERLYLDHNNLTRMPGPLPRSLRELHLDHNQISRVPNNALEGLENLTALYLQHNEIQEVGSSMRGLRSLILLDLSYNHLRKVPDGLPSALEQLYMEHNNVYTVPDSYFRGAPKLLYVRLSHNSLTNNGLASNTFNSSSLLELDLSYNQLQKIPPVNTNLENLYLQGNRINEFSISSFCTVVDVVNFSKLQVLRLDGNEIKRSAMPADAPLCLRLASLIEI
With B1 as the protein, how does the expression_or_secretion read?
The expression_or_secretion was “abolishes”.
